# Measured values published in the array DNA melting data of Ke et al..
# Test: melting temperature; melt of duplexes
# Conditions: sodium 0.0675 M; strand 1 µM
row,Substance,Tm [°C]
1,CGACGTGCTTTATGTGCTG+CAGCACATACCGCACGTCG ((((((((..(((((((((+)))))))))..)))))))),48.3
2,CGACGTGCTAAATGTGCTG+CAGCACATATGGCACGTCG ((((((((.(.((((((((+)))))))).).)))))))),52
3,CGACGTGCACGATGTGCTG+CAGCACATCAGGCACGTCG ((((((((..(((((((((+)))))))))..)))))))),53.4
4,CGACGTGCCAAATGTGCTG+CAGCACATTCCGCACGTCG ((((((((..(((((((((+)))))))))..)))))))),50.1
5,CGACGTGCGACATGTGCTG+CAGCACATGTTGCACGTCG ((((((((.((((((((((+)))))))))).)))))))),60.9
6,CGACGTGCATTATGTGCTG+CAGCACATAGAGCACGTCG ((((((((..(((((((((+)))))))))..)))))))),51.2
7,CGACGTGCTCCATGTGCTG+CAGCACATCATGCACGTCG ((((((((...((((((((+))))))))...)))))))),47.7
8,CGACGTGCTCGATGTGCTG+CAGCACATGTTGCACGTCG ((((((((...((((((((+))))))))...)))))))),49.5
9,CGACGTGCAATATGTGCTG+CAGCACATAGTGCACGTCG (((((((((.(((((((((+))))))))).))))))))),53.9
10,CGACGTGCTCCATGTGCTG+CAGCACATTAAGCACGTCG (((((((((..((((((((+))))))))..))))))))),49.4
11,CGACGTGCCACATGTGCTG+CAGCACATAATGCACGTCG ((((((((...((((((((+))))))))...)))))))),47.5
12,CGACGTGCTGGATGTGCTG+CAGCACATGATGCACGTCG ((((((((...((((((((+))))))))...)))))))),51.7
13,CGACGTGCGTAATGTGCTG+CAGCACATACAGCACGTCG ((((((((...((((((((+))))))))...)))))))),54
14,CGACGTGCGCGATGTGCTG+CAGCACATAATGCACGTCG ((((((((...((((((((+))))))))...)))))))),50
15,CGACGTGCGCAATGTGCTG+CAGCACATATTGCACGTCG ((((((((...((((((((+))))))))...)))))))),49.2
16,CGACGTGCTATATGTGCTG+CAGCACATTTTGCACGTCG ((((((((.(.((((((((+)))))))).).)))))))),50.9
17,CGACGTGCGAAATGTGCTG+CAGCACATTTGGCACGTCG ((((((((.((((((((((+)))))))))).)))))))),57.3
18,CGACGTGCAGCATGTGCTG+CAGCACATTGCGCACGTCG ((((((((...((((((((+))))))))...)))))))),52.5
19,CGACGTGCCGGATGTGCTG+CAGCACATTGAGCACGTCG ((((((((...((((((((+))))))))...)))))))),50.8
20,CGACGTGCACAATGTGCTG+CAGCACATCGAGCACGTCG ((((((((.(.((((((((+)))))))).).)))))))),48.6
21,CGACGTGCATAATGTGCTG+CAGCACATCTCGCACGTCG ((((((((...((((((((+))))))))...)))))))),47.6
22,CGACGTGCGGGATGTGCTG+CAGCACATCGGGCACGTCG ((((((((..(((((((((+)))))))))..)))))))),56.1
23,CGACGTGCGTGATGTGCTG+CAGCACATCAAGCACGTCG ((((((((.((((((((((+)))))))))).)))))))),58.6
24,CGACGTGCGCTATGTGCTG+CAGCACATACCGCACGTCG (((((((((.(((((((((+))))))))).))))))))),54.8

row,Substance,Tm [°C]
1,CGACGTGCCTCATGTGCTG+CAGCACATAGAGCACGTCG ((((((((...((((((((+))))))))...)))))))),51.6
2,CGACGTGCGTAATGTGCTG+CAGCACATTGCGCACGTCG (((((((((.(((((((((+))))))))).))))))))),60.3
3,CGACGTGCCGTATGTGCTG+CAGCACATCAGGCACGTCG (((((((((..((((((((+))))))))..))))))))),57.1
4,CGACGTGCATAATGTGCTG+CAGCACATGATGCACGTCG ((((((((((.((((((((+)))))))).)))))))))),56.8
5,CGACGTGCCTTATGTGCTG+CAGCACATTGGGCACGTCG (((((((((..((((((((+))))))))..))))))))),55
6,CGACGTGCTCAATGTGCTG+CAGCACATTGGGCACGTCG ((((((((.((((((((((+)))))))))).)))))))),60.1
7,CGACGTGCGCCATGTGCTG+CAGCACATTCGGCACGTCG ((((((((...((((((((+))))))))...)))))))),47.5
8,CGACGTGCGTCATGTGCTG+CAGCACATCCGGCACGTCG ((((((((...((((((((+))))))))...)))))))),48.7
9,CGACGTGCGGGATGTGCTG+CAGCACATGAAGCACGTCG ((((((((...((((((((+))))))))...)))))))),53.7
10,CGACGTGCGAGATGTGCTG+CAGCACATTTAGCACGTCG ((((((((.(.((((((((+)))))))).).)))))))),53.3
11,CGACGTGCCACATGTGCTG+CAGCACATGTGGCACGTCG (((((((((((((((((((+))))))))))))))))))),66.4
12,CGACGTGCCCTATGTGCTG+CAGCACATGACGCACGTCG ((((((((...((((((((+))))))))...)))))))),44
13,CGACGTGCCGTATGTGCTG+CAGCACATGTAGCACGTCG ((((((((...((((((((+))))))))...)))))))),49.1
14,CGACGTGCTCCATGTGCTG+CAGCACATACAGCACGTCG (((((((((..((((((((+))))))))..))))))))),49.6
15,CGACGTGCCGTATGTGCTG+CAGCACATGGAGCACGTCG ((((((((...((((((((+))))))))...)))))))),50.8
16,CGACGTGCACCATGTGCTG+CAGCACATGGAGCACGTCG ((((((((.((((((((((+)))))))))).)))))))),58.8
17,CGACGTGCACGATGTGCTG+CAGCACATATAGCACGTCG ((((((((...((((((((+))))))))...)))))))),45.6
18,CGACGTGCTAAATGTGCTG+CAGCACATCCAGCACGTCG (((((((((..((((((((+))))))))..))))))))),50.8
19,CGACGTGCGCGATGTGCTG+CAGCACATCCGGCACGTCG ((((((((..(((((((((+)))))))))..)))))))),55
20,CGACGTGCTGAATGTGCTG+CAGCACATCTAGCACGTCG (((((((((..((((((((+))))))))..))))))))),53
21,CGACGTGCCTTATGTGCTG+CAGCACATCGCGCACGTCG ((((((((...((((((((+))))))))...)))))))),47.2
22,CGACGTGCATAATGTGCTG+CAGCACATTTTGCACGTCG (((((((((.(((((((((+))))))))).))))))))),56.1
23,CGACGTGCGATATGTGCTG+CAGCACATTGGGCACGTCG ((((((((...((((((((+))))))))...)))))))),50.3
24,CGACGTGCGTTATGTGCTG+CAGCACATGCCGCACGTCG (((((((((..((((((((+))))))))..))))))))),53.7

row,Substance,Tm [°C]
1,CGACGTGCAGCATGTGCTG+CAGCACATACTGCACGTCG ((((((((((.((((((((+)))))))).)))))))))),55.7
2,CGACGTGCAATATGTGCTG+CAGCACATTCGGCACGTCG ((((((((...((((((((+))))))))...)))))))),49.5
3,CGACGTGCAACATGTGCTG+CAGCACATCTAGCACGTCG ((((((((.(.((((((((+)))))))).).)))))))),48.2
4,CGACGTGCAACATGTGCTG+CAGCACATTACGCACGTCG ((((((((...((((((((+))))))))...)))))))),47.9
5,CGACGTGCCGCATGTGCTG+CAGCACATGGTGCACGTCG ((((((((..(((((((((+)))))))))..)))))))),52
6,CGACGTGCAAAATGTGCTG+CAGCACATGTTGCACGTCG ((((((((((.((((((((+)))))))).)))))))))),56.4
7,CGACGTGCCCTATGTGCTG+CAGCACATAAGGCACGTCG (((((((((.(((((((((+))))))))).))))))))),55.6
8,CGACGTGCGTCATGTGCTG+CAGCACATCATGCACGTCG ((((((((.(.((((((((+)))))))).).)))))))),50.8
9,CGACGTGCCAAATGTGCTG+CAGCACATCGGGCACGTCG (((((((((..((((((((+))))))))..))))))))),54.3
10,CGACGTGCATTATGTGCTG+CAGCACATGCTGCACGTCG (((((((((..((((((((+))))))))..))))))))),49
11,CGACGTGCATAATGTGCTG+CAGCACATGTGGCACGTCG ((((((((...((((((((+))))))))...)))))))),51
12,CGACGTGCTACATGTGCTG+CAGCACATGTCGCACGTCG ((((((((.((((((((((+)))))))))).)))))))),57.2
13,CGACGTGCTCCATGTGCTG+CAGCACATGTAGCACGTCG (((((((((.(((((((((+))))))))).))))))))),56.3
14,CGACGTGCATAATGTGCTG+CAGCACATACTGCACGTCG (((((((((..((((((((+))))))))..))))))))),50.5
15,CGACGTGCTCCATGTGCTG+CAGCACATTAGGCACGTCG ((((((((...((((((((+))))))))...)))))))),48.4
16,CGACGTGCGCGATGTGCTG+CAGCACATTATGCACGTCG ((((((((...((((((((+))))))))...)))))))),50
17,CGACGTGCCCGATGTGCTG+CAGCACATGCGGCACGTCG (((((((((..((((((((+))))))))..))))))))),54.6
18,CGACGTGCTTTATGTGCTG+CAGCACATCGGGCACGTCG ((((((((...((((((((+))))))))...)))))))),48.3
19,CGACGTGCACTATGTGCTG+CAGCACATATTGCACGTCG (((((((((.(((((((((+))))))))).))))))))),51.5
20,CGACGTGCTTAATGTGCTG+CAGCACATACGGCACGTCG ((((((((...((((((((+))))))))...)))))))),48.3
21,CGACGTGCGTAATGTGCTG+CAGCACATTGAGCACGTCG ((((((((..(((((((((+)))))))))..)))))))),56.6
22,CGACGTGCCCCATGTGCTG+CAGCACATTGGGCACGTCG ((((((((((.((((((((+)))))))).)))))))))),58.5
23,CGACGTGCCCTATGTGCTG+CAGCACATGGCGCACGTCG ((((((((.(.((((((((+)))))))).).)))))))),52.9
24,CGACGTGCATTATGTGCTG+CAGCACATCGTGCACGTCG (((((((((..((((((((+))))))))..))))))))),47.3
